Tests used:
[1] = biological target: CBS-myoglobin; assay: BLI, biotinylated CPP-adapter on streptavidin sensors, CBS-myoglobin as analyte (1 µM to 63 nM), one-state association-then-dissociation fit
[2] = biological target: CBS-myoglobin; assay: BLI, dissociation in buffer with EDTA
[3] = biological target: CBS-myoglobin; assay: BLI, sensor exposed to the highest analyte concentration, then dipped into buffer with EDTA
[4] = biological target: TAT-CaM (HIV; human); assay: BLI, dissociation upon exposure to EDTA
[5] = biological target: TAT-CaM (HIV; human); assay: BLI (Octet QK), biotinylated TAT-CaM on streptavidin sensors, cargo as analyte, global 1:1 association-then-dissociation fit
[6] = biological target: TAT-CaM (HIV; human); assay: BLI, dissociation after moving sensors to buffer with 10 mM EDTA (1 µM sample)
[7] = biological target: troponin inhibitory peptide-myoglobin; assay: BLI, sensor exposed to the highest analyte concentration, then dipped into buffer with EDTA
[8] = biological target: troponin inhibitory peptide-myoglobin; assay: BLI, biotinylated TAT-troponin on streptavidin sensors, troponin inhibitory peptide-myoglobin as analyte (1 µM to 63 nM), one-state association-then-dissociation fit
[9] = biological target: TAT-CaM (HIV; human); assay: BLI (Octet QK), biotinylated TAT-CaM on streptavidin sensors, eNOS as analyte, global 1:1 association-then-dissociation fit

Chain of CBS-HRP (P00433 31-338): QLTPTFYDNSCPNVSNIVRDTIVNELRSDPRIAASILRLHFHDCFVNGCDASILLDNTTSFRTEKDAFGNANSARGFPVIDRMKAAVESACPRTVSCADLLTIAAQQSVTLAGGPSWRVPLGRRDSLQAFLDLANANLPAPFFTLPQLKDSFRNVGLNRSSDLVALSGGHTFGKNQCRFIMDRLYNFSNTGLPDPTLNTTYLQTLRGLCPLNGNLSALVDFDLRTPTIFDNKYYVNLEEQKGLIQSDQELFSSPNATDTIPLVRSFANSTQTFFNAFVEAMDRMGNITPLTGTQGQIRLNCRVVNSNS
Chain of endothelial nitric oxide synthase (enzyme) (P29473 2-1205): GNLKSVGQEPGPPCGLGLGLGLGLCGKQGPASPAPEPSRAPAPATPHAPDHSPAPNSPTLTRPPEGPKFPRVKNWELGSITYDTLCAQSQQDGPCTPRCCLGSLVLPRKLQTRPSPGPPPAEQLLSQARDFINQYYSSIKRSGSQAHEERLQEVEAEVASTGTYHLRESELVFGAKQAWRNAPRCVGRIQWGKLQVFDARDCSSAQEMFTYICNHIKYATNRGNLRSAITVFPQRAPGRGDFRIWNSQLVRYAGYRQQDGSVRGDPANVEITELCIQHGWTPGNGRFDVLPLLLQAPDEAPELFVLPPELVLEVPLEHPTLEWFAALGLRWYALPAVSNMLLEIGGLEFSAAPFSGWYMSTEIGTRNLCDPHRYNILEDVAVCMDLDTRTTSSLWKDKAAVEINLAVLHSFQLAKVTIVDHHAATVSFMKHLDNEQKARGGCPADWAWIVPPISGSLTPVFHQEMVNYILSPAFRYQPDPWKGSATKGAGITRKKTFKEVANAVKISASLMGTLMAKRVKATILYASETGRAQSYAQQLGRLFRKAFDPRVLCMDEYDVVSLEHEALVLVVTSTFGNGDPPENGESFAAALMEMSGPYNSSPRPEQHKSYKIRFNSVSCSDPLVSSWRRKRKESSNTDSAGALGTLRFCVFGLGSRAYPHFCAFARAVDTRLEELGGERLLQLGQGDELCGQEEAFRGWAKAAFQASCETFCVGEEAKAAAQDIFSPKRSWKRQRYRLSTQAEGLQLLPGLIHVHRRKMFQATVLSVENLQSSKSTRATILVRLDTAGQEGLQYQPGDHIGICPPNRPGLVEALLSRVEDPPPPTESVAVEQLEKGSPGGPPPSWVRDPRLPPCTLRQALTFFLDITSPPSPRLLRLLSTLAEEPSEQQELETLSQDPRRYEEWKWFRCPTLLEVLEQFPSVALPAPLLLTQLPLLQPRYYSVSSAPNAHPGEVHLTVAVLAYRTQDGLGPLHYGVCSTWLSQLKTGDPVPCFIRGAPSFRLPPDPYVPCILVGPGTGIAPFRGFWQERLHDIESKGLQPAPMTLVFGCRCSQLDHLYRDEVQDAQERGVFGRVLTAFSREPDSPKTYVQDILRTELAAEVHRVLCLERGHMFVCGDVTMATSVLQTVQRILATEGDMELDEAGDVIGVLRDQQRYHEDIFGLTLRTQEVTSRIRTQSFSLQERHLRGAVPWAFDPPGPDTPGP

| Substance | kon [1] [M⁻¹ s⁻¹] | koff (EDTA) [2] [s⁻¹] | koff (EDTA) [3] [s⁻¹] | koff (EDTA) [4] [s⁻¹] | Kd [5] [nM] | koff [5] [s⁻¹] | kon [5] [M⁻¹ s⁻¹] | koff (EDTA) [6] [s⁻¹] | further results |
| --- | --- | --- | --- | --- | --- | --- | --- | --- | --- |
| TAT-CaM 2.0 (from UniProt P0DP23 2-149) | 4900 | 0.1 | 0.17 |  |  |  |  |  |  |
| CBS-myoglobin |  |  |  | 0.1 | 0.9 | 5.5e-05 | 59000 | 0.09 |  |
| CBS-β-Gal (enzyme) |  |  |  | 0.1 | 73 | 0.00067 | 9200 | 0.05 |  |
| TAT-calmodulin like protein 3 (from UniProt P27482 1-149) | 6100 | 0.1 | 0.07 |  |  |  |  |  | Kd [1]: 29.8 nM; koff [1]: 0.00018 s⁻¹ |
| CBS-HRP (from UniProt P00433 31-338) (enzyme) |  |  |  | 0.1 | 160 | 0.00028 | 1700 | 0.2 |  |
| SAP(E)-CaM | 9400 | 0.1 | 0.2 |  |  |  |  |  | Kd [1]: 13.3 nM; koff [1]: 0.00013 s⁻¹ |
| TAT-troponin |  |  |  |  |  |  |  |  | koff (EDTA) [7]: 0.018 s⁻¹; kon [8]: 3700 M⁻¹ s⁻¹ |
| endothelial nitric oxide synthase (enzyme) |  |  |  |  |  |  |  |  | Kd [9]: 15 nM; koff [9]: 0.00018 s⁻¹; kon [9]: 12000 M⁻¹ s⁻¹ |
